Test [1] concerns the target T1, CARD-11-CARD fused to the NF-kB activation domain (pCMV-CARD-11/AD) (mouse; human, UniProt Q04207 364-549).
T1 construct: range 364-550; Only the CARD domain of CARD-11 stood in the assay; also called CARD of CARD-11
T1 sequence: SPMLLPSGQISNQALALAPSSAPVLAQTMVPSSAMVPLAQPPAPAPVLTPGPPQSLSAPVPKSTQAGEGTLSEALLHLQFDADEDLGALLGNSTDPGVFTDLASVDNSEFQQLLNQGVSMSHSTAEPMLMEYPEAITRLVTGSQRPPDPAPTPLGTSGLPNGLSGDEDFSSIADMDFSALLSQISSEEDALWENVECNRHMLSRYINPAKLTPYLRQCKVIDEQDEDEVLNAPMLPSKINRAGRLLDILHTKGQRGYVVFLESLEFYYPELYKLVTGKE
Kind of test: mammalian two-hybrid, 293T cells. How it is done:
(§1) For the additional mammalian two-hybrid assays, 293T cells in 6-well plates (35-mm wells) were transfected with the following plasmids: 750 ng of pCMV-CARD-9/AD, 750 ng of pCMV-CARD/BD, 250 ng of pFR-Luc firefly reporter (Stratagene), and 250 ng of pRL-TK renilla reporter (Promega). For NF-?B assays, 293T cells were transfected with the following plasmids: 900 ng of pNF-kB luciferase reporter (Stratagene), 100 ng of pRL-TK renilla reporter (Promega) and 1000 ng of indicated expression plasmids. Cells were harvested 24 h after transfection, and firefly luciferase activity was determined using the Dual-Luciferase Reporter Assay System (Promega). In addition, renilla luciferase activity was determined and used to normalize transfection efficiencies.
(§2) To identify the binding partners of CARD-11, a mammalian two-hybrid analysis was performed using the CARD domains of 15 known proteins. For mammalian two-hybrid assays, 293T cells in 6-well plates (35-mm wells) were transfected with the following plasmids: 750 ng of pCMV-CARD-11/AD, 750 ng of pCMV-BD fused to individual CARD domains, 250 ng of pFR-Luc firefly reporter (Stratagene), and 250 ng of pRL-TK renilla reporter (Promega). pCMV-CARD-11 /AD and pCMV-CARD/BD plasmids were constructed by inserting individual CARD domains into pCMV-CARD/AD and pCMV-BD, respectively (Stratagene): Bcl-10 (residues 1-104), ARC (residues 1-110), RICK (residues 417-540), CARD-4 (residues 1-1 19), ASC (residues 92-195), caspase-I (residues 1-110), caspase-2 (residues 1-122), caspase-4 (residues 1-108), caspase-9 (residues 1-111), caspase-11 (residues 1-122), caspase-12 (residues 1-121), IAP-1 (residues 423-543), IAP-2 (residues 450-557), Apaf-1 (residues 1-108) and RAIDD (residues 1 -108). Cells were harvested 24 hours after transfection, and firefly luciferase activity was determined using the Dual-Luciferase Reporter Assay System (Promega). In addition, renilla luciferase activity was determined and used to normalize transfection efficiencies.

For test [2], the target named is T2, CARD-9-CARD/AD (mouse; human, UniProt Q04207 364-549).
T2 construct: range 364-550; also called pCMV-CARD-9-CARD/AD; pCMV-CARD-9/AD
T2 sequence: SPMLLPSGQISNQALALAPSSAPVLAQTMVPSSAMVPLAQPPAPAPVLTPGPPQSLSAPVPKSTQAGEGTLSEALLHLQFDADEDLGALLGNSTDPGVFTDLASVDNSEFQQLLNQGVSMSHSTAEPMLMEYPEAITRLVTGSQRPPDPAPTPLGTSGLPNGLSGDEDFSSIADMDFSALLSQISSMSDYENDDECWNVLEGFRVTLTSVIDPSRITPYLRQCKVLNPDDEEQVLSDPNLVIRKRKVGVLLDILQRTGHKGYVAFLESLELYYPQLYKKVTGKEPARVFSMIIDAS
The test is described as follows: mammalian two-hybrid, 293T cells. As to the method:
as §1, §2

Data on seven molecules can be found in US20030113787A1 (Takeda / Millennium, published 2003).

B1: caspase-12 CARD domain (residues 1-121) in pCMV-BD (other, UniProt P04386 1-147, looked up)
chain: MKLLSSIEQACDICRLKKLKCSKEKPKCAKCLKNNWECRYSPKTKRSPLTRAHLTEVESRLERLEQLFLLIFPREDLDMILKMDSLQDIKALLTGLFVQDNVNKDAVTDRLASVETDMPLTLRQHRISATSSSEESSNKGQRQLTVSMAARRTHERDPIYKIKGLAKDMLDGVFDDLVEKNVLNGDELLKIGESASFILNKAENLVENFLEKTDMAGKIFAGHIANSQEQLSLQFSNDEDDGPQKICTPSSPSESKRKVEDDEMEVNA
notes: range 1-147;range 1-121; Member of the two-hybrid CARD panel
Consider B1, for which the binding result in test [1] and in test [2] was “no binding” each time.

B2: Apaf-1 CARD domain (residues 1-108) in pCMV-BD (other, UniProt P04386 1-147, looked up)
chain: MKLLSSIEQACDICRLKKLKCSKEKPKCAKCLKNNWECRYSPKTKRSPLTRAHLTEVESRLERLEQLFLLIFPREDLDMILKMDSLQDIKALLTGLFVQDNVNKDAVTDRLASVETDMPLTLRQHRISATSSSEESSNKGQRQLTVSMDAKARNCLLQHREALEKDIKTSYIMDHMISDGFLTISEEEKVRNEPTQQQRAAMLIKMILKKDNDSYVSFYNALLHEGYKDLAALLHDGIPVVSSSSGKDSVSGITS
notes: range 1-147;range 1-108; Member of the two-hybrid CARD panel
B2: the binding result in test [1] and in test [2] was “no binding” each time.

B3: RAIDD CARD domain (residues 1-108) in pCMV-BD (other, UniProt P04386 1-147, looked up)
chain: MKLLSSIEQACDICRLKKLKCSKEKPKCAKCLKNNWECRYSPKTKRSPLTRAHLTEVESRLERLEQLFLLIFPREDLDMILKMDSLQDIKALLTGLFVQDNVNKDAVTDRLASVETDMPLTLRQHRISATSSSEESSNKGQRQLTVSMEARDKQVLRSLRLELGAEVLVEGLVLQYLYQEGILTENHIQEINAQTTGLRKTMLLLDILPSRGPKAFDTFLDSLQEFPWVREKLKKAREEAMTDLPAGDRLTGIPS
notes: as for B2
Regarding B3, the binding result in test [1] and in test [2] was “no binding” throughout.

B4: CARD-4 CARD domain (residues 1-119) in pCMV-BD (other, UniProt P04386 1-147, looked up)
chain: MKLLSSIEQACDICRLKKLKCSKEKPKCAKCLKNNWECRYSPKTKRSPLTRAHLTEVESRLERLEQLFLLIFPREDLDMILKMDSLQDIKALLTGLFVQDNVNKDAVTDRLASVETDMPLTLRQHRISATSSSEESSNKGQRQLTVSMEEQGHSEMEIIPSESHPHIQLLKSNRELLVTHIRNTQCLVDNLLKNDYFSAEDAEIVCACPTQPDKVRKILDLVQSKGEEVSEFFLYLLQQLADAYVDLRPWLLEIGFSPSLLTQSKV
notes: range 1-147;range 1-119; Member of the two-hybrid CARD panel
For the molecule B4, the binding result in test [1] and in test [2] was “no binding” in each case.

B5: Bcl-10-CARD/BD (other, UniProt P04386 1-147, looked up)
chain: MKLLSSIEQACDICRLKKLKCSKEKPKCAKCLKNNWECRYSPKTKRSPLTRAHLTEVESRLERLEQLFLLIFPREDLDMILKMDSLQDIKALLTGLFVQDNVNKDAVTDRLASVETDMPLTLRQHRISATSSSEESSNKGQRQLTVSMEPTAPSLTEEDLTEVKKDALENLRVYLCEKIIAERHFDHLRAKKILSREDTEEISCRTSSRKRAGKLLDYLQENPKGLDTLVESIRREKTQNFLIQKITDEVL
notes: range 1-147;range 1-104; Two-hybrid construct in pCMV-BD; also called CARD of Bcl-10; CARD of Bcl10
For the molecule B5, the binding result in test [2] is “binds”.

B6: ARC CARD domain (residues 1-110) in pCMV-BD (other, UniProt P04386 1-147, looked up)
chain: MKLLSSIEQACDICRLKKLKCSKEKPKCAKCLKNNWECRYSPKTKRSPLTRAHLTEVESRLERLEQLFLLIFPREDLDMILKMDSLQDIKALLTGLFVQDNVNKDAVTDRLASVETDMPLTLRQHRISATSSSEESSNKGQRQLTVSMGNAQERPSETIDRERKRLVETLQADSGLLLDALLARGVLTGPEYEALDALPDAERRVRRLLLLVQGKGEAACQELLRCAQRTAGAPDPAWDWQHVGPGYRDRSYDPPCP
notes: range 1-147;range 1-110; Member of the two-hybrid CARD panel
B6: the binding result in test [1] and in test [2] was “no binding” in each case.

B7: RICK CARD domain (residues 417-540) in pCMV-BD (other, UniProt P04386 1-147, looked up)
chain: MKLLSSIEQACDICRLKKLKCSKEKPKCAKCLKNNWECRYSPKTKRSPLTRAHLTEVESRLERLEQLFLLIFPREDLDMILKMDSLQDIKALLTGLFVQDNVNKDAVTDRLASVETDMPLTLRQHRISATSSSEESSNKGQRQLTVSAIINPLSTAGNSERLQPGIAQQWIQSKREDIVNQMTEACLNQSLDALLSRDLIMKEDYELVSTKPTRTSKVRQLLDTTDIQGEEFAKVIVQKLKDNKQMGLQPYPEILVVSRSPSLNLLQNKSM
notes: range 1-147;range 417-540; Member of the two-hybrid CARD panel
For B7, the binding result in test [1] and in test [2] was “no binding” each time.
